Assay results: patent US20020045192A1 (ST JUDE CHILDREN S RESEARCH HOSPITAL, published 2002)
Where no end group is shown, it is not given here.

Assays:
His-tagged Hdm2 210-304 [1] = target: T1, His-tagged Hdm2 210-304 (human, UniProt Q00987 210-304); test: SPR, His-tagged Hdm2 210-304 captured by anti-His antibody, peptide injected 10 min, signal minus reference cell [a]
T1 construct: Captured on the C-1 chip by anti-His antibody for the Arf peptide library SPR; Tag placed first here
Method: (§1) Reactive sites remaining on the surface were blocked by reaction with ethanolamine. The His-tagged ligand was attached to the antibody by injecting a 5-10 μg/ml solution of the ligand in 10 mM HEPES, 150 mM NaCl, pH 7.4 (HBS-N buffer, Biacore) at a flow rate of 10 μL/min through the flow cell. A reference cell was prepared similarly except that no His-tagged ligand was added. Binding was measured by flowing the non-His-tagged analyte through the reference and ligand-containing flow cells in sequence. Prior to injection of ligands, the chip surfaces were equilibrated in HBS-N buffer. Changes in the SPR response due to solvent differences and the injection process were monitored by injection of HBS-N buffer alone. Regeneration of the chip surface to remove bound analyte and ligand was accomplished by two 100 μL injections of 10 mM glycine, pH 2.0 through both flow cells. Data reported is the difference in SPR signal between the flow cell containing analyte and the reference cell. Duplicate injections were made and the SPR response values reported are the average of these two injections.
(§2) Two libraries of peptides 15 amino acids in length were synthesized based on the sequence of exon 1β of mouse p19^Arf and the entire sequence of human p14^Arf. The sequence for the first peptide in each library corresponded to the first 15 amino acids of the protein sequences. […] This approach yielded two libraries of overlapping peptides spanning mouse p19^Arf residues 1-64 and human p14^Arf residues 1-132. The ability of these peptides to bind Hdm2 fragments was determined using the surface plasmon resonance (SPR) technique with a Biacore 3000 instrument. […] Library peptides were allowed to flow over the Hdm2 surface, or over a control surface lacking an Hdm2 fragment.

[2] = target: T2, Hdm2 210-275 (residues 210-275 of SEQ ID NO:8, His tag cleaved) (human, UniProt Q00987 210-275); test: CD-based binding assay
[3] = target: T3, Hdm2 210-304 (residues 210-304 of SEQ ID NO:8, His tag cleaved) (human, UniProt Q00987 210-304); test: CD-based binding assay
T3 construct: Non-His-tagged analyte in SPR; also used in CD, NMR, gel filtration

[4] = target: T4, Hdm2 peptide, residues 275-289 of SEQ ID NO:8 (H2 segment) (human); test: CD titration, failure to induce structure
T4 construct: also called H2 peptide; one from the H2 segment
T4 peptide: Ac-VYQVTVYQAGESDTD-NH2

[5] = target: T2, Hdm2 210-275 (residues 210-275 of SEQ …); test: CD titration, ellipticity at 200 nm
Method: (§3) Further, saturable binding is also observed when the Hdm2 fragments were added to an excess of mArfN37.

[6] = target: T3, Hdm2 210-304 (residues 210-304 of SEQ …); test: CD titration, ellipticity at 200 nm
Method: as §3

His-tagged Hdm2 210-304 [7] = target: T1, His-tagged Hdm2 210-304; test: SPR, His-tagged Hdm2 210-304 captured by anti-His antibody, peptide injected 10 min, signal minus reference cell [b]
Method: as §1, §2

T2 sequence (Q00987 210-275): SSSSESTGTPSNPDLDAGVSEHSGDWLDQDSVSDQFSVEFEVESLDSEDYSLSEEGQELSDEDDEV
T1 sequence (Q00987 210-304): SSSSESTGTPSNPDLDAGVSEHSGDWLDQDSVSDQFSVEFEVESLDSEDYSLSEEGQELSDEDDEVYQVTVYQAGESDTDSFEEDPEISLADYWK
T3 sequence (Q00987 210-304): as above

B1: 1-15 (mouse Arf peptide) (peptide)
peptide: Ac-MGRRFLVTVRIQRAG-NH2
notes: also called mouse p19Arf library peptide, residues 1-15
His-tagged Hdm2 210-304 [1]
  binding result: binds

## Ac-RRPRTASCALAFVNM-NH2 [mouse p19Arf library peptide, residues 31-45 (contains the NoLS RRPR)]
His-tagged Hdm2 210-304 [1]
  binding result: binds

B2: human Arf motif peptide A1 (1-14) (peptide)
peptide: Ac-MVRRFLVTLRIRRA-NH2
notes: the peptide tested spans 1-14; also called human A1
[2]
  binding result: binds
[3]
  binding result: binds
[4]
  binding result: no binding (tested: 1-10 µM (concentrations used))

B3: mArfN37 (N-terminal fragment of mouse p19Arf, residues 1-37, His tag cleaved) (peptide)
chain: MGRRFLVTVRIQRAGRPLQERVFLVKFVRSRRPRTAS
modifications: not fully specified
notes: Tag-cleaved form used in CD, NMR and gel filtration; also called 15N-mArfN37
[5]
  Kd: < 5 µM
[6]
  Kd: < 5 µM

B4: human p14Arf peptide, residues 16-30 (contains the human A2 motif) (peptide)
peptide: Ac-GPPRVRVFVVHIPRL-NH2
notes: the peptide tested is the 15-mer 16-30; also called fourth peptide of the human library; human A2 (16-30)
His-tagged Hdm2 210-304 [7]
  binding result: binds
[2]
  binding result: no binding
[3]
  binding result: binds
[4]
  binding result: no binding (tested: 1-10 µM (concentrations used))

B5: 6-20 (mouse Arf peptide) (peptide)
peptide: Ac-LVTVRIQRAGRPLQE-NH2
notes: also called mouse p19Arf library peptide, residues 6-20
His-tagged Hdm2 210-304 [1]
  binding result: binds

B6: 11-25 (mouse Arf peptide) (peptide)
peptide: Ac-IQRAGRPLQERVFLV-NH2
notes: also called mouse p19Arf library peptide, residues 11-25
His-tagged Hdm2 210-304 [1]
  binding result: no binding

B7: 21-35 (mouse Arf peptide) (peptide)
peptide: Ac-RVFLVKFVRSRRPRT-NH2
notes: also called mouse p19Arf library peptide, residues 21-35
His-tagged Hdm2 210-304 [1]
  binding result: binds

B8: 26-40 (mouse Arf peptide) (peptide)
peptide: Ac-KFVRSRRPRTASCAL-NH2
notes: also called mouse p19Arf library peptide, residues 26-40
His-tagged Hdm2 210-304 [1]
  binding result: binds

B9: 41-55 (mouse Arf peptide) (peptide)
peptide: Ac-AFVNMLLRLERILRR-NH2
notes: also called mouse p19Arf library peptide, residues 41-55
His-tagged Hdm2 210-304 [1]
  binding result: no binding

B10: mouse Arf motif peptide A1 (1-14) (peptide)
peptide: Ac-MGRRFLVTVRIQRA-NH2
notes: the peptide tested spans 1-14; also called mouse A1
[2]
  binding result: binds
[3]
  binding result: binds
[4]
  binding result: no binding (tested: 1-10 µM (concentrations used))

B11: mouse Arf motif peptide A2 (16-30) (peptide)
peptide: Ac-RPLQERVFLVKFVRS-NH2
notes: Same limits as the fourth peptide of the mouse library, so possibly a member of group m12; also called mouse A2
His-tagged Hdm2 210-304 [1]
  binding result: binds
[2]
  binding result: no binding
[3]
  binding result: binds
[4]
  binding result: no binding (tested: 1-10 µM (concentrations used))
